How the values were obtained:
[1] = substrate: Cc1cc2nc3c(=O)[nH]c(=O)nc-3n(C[C@H](O)[C@H](O)[C@H](O)COP(=O)(O)OP(=O)(O)OC[C@H]3O[C@@H](n4cnc5c(N)ncnc54)[C@H](O)[C@@H]3O)c2cc1C; assay: ferrozine A562 ferric reductase assay; format: biochemical, Paramagnetospirillum magneticum; settings: stimulation of ferric reductase activity, co-substrates NADH and ferric citrate, pH 7.5, varied: cofactor
[2] = substrate: NC(=O)C1=CN([C@@H]2O[C@H](COP(=O)(O)OP(=O)(O)OC[C@H]3O[C@@H](n4cnc5c(N)ncnc54)[C@H](O)[C@@H]3O)[C@@H](O)[C@H]2O)C=CC1; assay: ferrozine A562 ferric reductase assay; format: biochemical, Paramagnetospirillum magneticum; settings: stimulation of ferric reductase activity, electron donor, FAD and ferric citrate present, pH 7.5

B1: Mms6 (Paramagnetospirillum magneticum AMB-1) (protein)
chain: VGGTIWTGKGLGLGLGLGLGAWGPIILGVVGAGAVYAYMKSRDIESAQSDEEVELRDALA
notes: micelles of about 13-15 nm
Km [1]: 25 µM
Km [2]: 15 µM
